From PMC11039998 (Nucleic Acids Research, 2024)
Where no end group is shown, it is not given here.

Target: Methyl binding domain (MBD) of MeCP2, wild-type (UniProt P51608 90-162)
Experiment: ITC

Methyl binding domain (MBD) of MeCP2, wild-type, sequence (P51608 90-162): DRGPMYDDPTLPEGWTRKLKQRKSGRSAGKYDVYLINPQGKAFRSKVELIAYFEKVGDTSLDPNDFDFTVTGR

Binder	Kd [µM]
Ac-TKAARKSAPAT-NH2 [H3-derived peptide of the K27 region, wild-type]	3.4
TKAARK(Me3)SAPAT [H3-derived peptide of the K27 region, trimethylated at K27]	12
